In PMC11224324, “Structural and functional insights underlying recognition of histidine phosphotransfer protein in fungal phosphorelay systems” (Communications Biology, 2024):

B1: REC_(hHK3) N1107A/N1110A, double mutant of the REC-1 domain of hHK3 from Chaetomium thermophilum (domain or fragment)
chain: ENRATPSLADNTRSFEILLAEDAAVAQRLAVKILEKYHHVVTVVGNGEEAVEAVKRKKFDVILMDVQMPVMGGFEATAKIREYEASLPTPQRTPIIALTAHAMMGDREKCLEAQMDEYLSKPLQQANLIQTILKCA
B2: Histag-Ct_HPt (residues 9-175), labelled with Red-Tris NTA dye (natural protein)
chain: ADRAQDHNNNNTPRNSNYVVEEEEVSEEEEEAIMMPDFGDHVDTSIFGQILEMDEGDDHDFSAPLVLNFFEQAEETFQKMETALNNKDLPELSKLGHFLKGSSATLGFTKIRDSCQLIQQYGHGLNVDGSSEPDEGVCLKKIAEALASARVDTVALHKMMREFFEY
modifications: Red-Tris NTA Dye bound to the Histag

What was measured:
Assay in all cases: MST; Histag-Ct_HPt labelled with Red-Tris NTA dye held constant; REC-1 domain in sixteen two-fold dilutions from 1 mM (0.32 mM for REC_hHK6); PBS + 0.05% Tween-20; medium MST power; hyperbolic fit, 1:1 model; mean of two titrations
Settings in all cases: both partners purified
[1] = biological target: B2
[2] = biological target: T1, REC_(hHK6), REC-1 domain of hybrid histidine kinase hHK6 (group VI, ortholog of Sln1) from Chaetomium … (Chaetomium thermophilum)
T1 construct: REC-1 (receiver) domain of hHK6, CTHT_0050920, group VI hybrid histidine kinase of C. thermophilum (protein ends at residue 1290); also called REC_(hHK6)-BeF; not shown: His6, N-terminal, cleaved

[3] = biological target: T2, REC_(hHK3), REC-1 domain of hybrid histidine kinase hHK3 (group III, ortholog of Nik1) from Chaetomium … (Chaetomium thermophilum)
T2 construct: REC-1 (receiver) domain of hHK3, CTHT_0053860, group III hybrid histidine kinase of C. thermophilum; not shown: His6, N-terminal, cleaved

Binder: B1
- Kd [1]: 46 ± 0.07 µM

Binder: B2
- Kd [2]: 13 ± 0.04 µM
- Kd [3]: 28 ± 0.1 µM
